# Laboratory results as given in patent US20040223972A1 (FUNCTIONAL GENETICS, published 2004).
# T1: Ebola VP40 (1-326) (Ebola virus (EBOV), UniProt Q05128 1-326)
# T1 sequence: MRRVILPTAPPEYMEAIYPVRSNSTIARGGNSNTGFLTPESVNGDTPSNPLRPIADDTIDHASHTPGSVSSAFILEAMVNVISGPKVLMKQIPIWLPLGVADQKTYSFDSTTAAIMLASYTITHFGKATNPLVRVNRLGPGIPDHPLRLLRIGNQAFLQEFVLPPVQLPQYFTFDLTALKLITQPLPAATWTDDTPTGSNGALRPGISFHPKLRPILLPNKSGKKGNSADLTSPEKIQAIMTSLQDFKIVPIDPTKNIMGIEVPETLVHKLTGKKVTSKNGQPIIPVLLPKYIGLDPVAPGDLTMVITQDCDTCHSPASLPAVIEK
# B1: Myc tagged TSG101 truncated at position 140 (other)
# chain: MAVSESQLKKMVSKYKYRDLTVRETVNVITLYKDLKPVLDSYVFNDGSSRELMNLTGTIPVPYRGNTYNIPICLWLLDTYPYNPPICFVKPTSSMTIKTGKHVDANGKIYLPYLHEWKHPQSDLLGLIQVMIVVFGDEPP
# Target: T1, Ebola VP40 (1-326)
# Experiment: co-immunoprecipitation with anti-Myc antibody from transfected 293T cells
binder,measurement,value
B1,binding result,no binding
